Positions count from the first letter of the chain named. Numbers in names are those of the source.
B1: G4C/S10C/T172R/G173Q CocE with H6 tag (enzyme)
chain: MVDCNYSVACNVMVPMRDGVRLAVDLYRPDADGPVPVLLVRNPYDKFDVFAWSTQSTNWLEFVRDGYAVVIQDTRGLFASEGEFVPHVDDEADAEDTLSWILEQAWCDGNVGMFGVSYLGVTQWQAAVSGVGGLKAIAPSMASADLYRAPWYGPGGALSVEALLGWSALIGRQLITSRSDARPEDAADFVQLAAILNDVAGAASVTPLAEQPLLGRLIPWVIDQVVDHPDNDESWQSISLFERLGGLATPALITAGWYDGFVGESLRTFVAVKDNADARLVVGPWSHSNLTGRNADRKFGIAATYPIQEATTMHKAFFDRHLRGETDALAGVPKVRLFVMGIDEWRDETDWPLPDTAYTPFYLGGSGAANTSTGGGTLSTSISGTESADTYLYDPADPVPSLGGTLLFHNGDNGPADQRPIHDRDDVLCYSTEVLTDPVEVTGTVSARLFVSSSAVDTDFTAKLVDVFPDGRAIALCDGIVRMRYRETLVNPTLIEAGEIYEVAIDMLATSNVFLPGHRIMVQVSSSNFPKYDRNSNTGGVIAREQLEEMCTAVNRIHRGPEHPSHIVLPIIKRKLAAALEHHHHHH
modifications: oxidized with CuCl2: disulfide bridge between Cys 4 of one monomer and Cys 10 of the other monomer
notes: Cloned and expressed like the CC mutant (C-terminal His tag); Cross-linked homodimer; also called CCRQ; CCRQ-CocE
B2: G4C/S10C/L169K/G173Q CocE with H6 tag (enzyme)
chain: B1 chain with L169K, R172T
modifications: oxidized with CuCl2: disulfide bridge between Cys 4 of one monomer and Cys 10 of the other monomer
notes: Cloned and expressed like the CC mutant (C-terminal His tag); Cross-linked homodimer; also called CCKQ; CCKQ tetramutant

Target: the molecule itself
Test: SDS-PAGE after oxidation with CuCl2
Procedure: Oxidation: Purified proteins were oxidized in 50 mM Tris pH 8.0 buffer containing 100 μm CuCl_2 overnight at 4° C. CuCl_2 was then removed by chelating it by adding 1 mM EDTA to the above mixture. Protein was further purified by passing it through Q Sepharose column and eluting off the column with 150-500 mM NaCl gradient. Fractions containing purified oxidized protein were identified by running on a SDS-PAGE gel under non-reducing conditions and pooled and concentrated to 5 mg/ml and snap frozen in liq N_2 and stored at −80° C.

Row | Protein | binding result
1 | B1 | binds
2 | B2 | binds
